Experimental findings from publication PMC9712689 (Communications Biology, 2022) are described below.

Common to all, as to details: both partners purified
Assay [1] has as its target T1, SltB1 (P. aeruginosa PAO1, UniProt Q9HX24 1-340).
T1 sequence (looked up): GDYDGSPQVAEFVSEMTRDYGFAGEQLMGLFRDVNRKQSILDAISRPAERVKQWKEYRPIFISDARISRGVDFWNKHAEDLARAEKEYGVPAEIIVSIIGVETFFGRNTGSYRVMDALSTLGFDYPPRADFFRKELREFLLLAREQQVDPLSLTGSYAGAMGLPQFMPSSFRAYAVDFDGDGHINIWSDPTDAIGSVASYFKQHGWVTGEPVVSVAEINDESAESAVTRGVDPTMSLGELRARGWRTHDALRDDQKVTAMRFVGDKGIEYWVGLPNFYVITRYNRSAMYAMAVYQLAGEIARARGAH
Put plainly: ITC.

For assay [2], the target named is T2, PilA (P. aeruginosa PAO1, UniProt P04739).
T2 construct: source: E. coli, purified (Ni-NTA or Strep-Tactin)
T2 sequence: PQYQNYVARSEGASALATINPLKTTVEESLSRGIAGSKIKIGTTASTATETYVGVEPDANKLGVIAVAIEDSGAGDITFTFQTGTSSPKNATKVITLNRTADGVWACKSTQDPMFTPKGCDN
Put plainly: ITC.

In assay [3] the target is T3, PBP1a (P. aeruginosa PAO1, UniProt Q07806 27-822). As to the kind of experiment: ITC.
The target of assay [4] is T4, MltD (P. aeruginosa PAO1, UniProt Q9I2T2 1-534).
T4 sequence (looked up): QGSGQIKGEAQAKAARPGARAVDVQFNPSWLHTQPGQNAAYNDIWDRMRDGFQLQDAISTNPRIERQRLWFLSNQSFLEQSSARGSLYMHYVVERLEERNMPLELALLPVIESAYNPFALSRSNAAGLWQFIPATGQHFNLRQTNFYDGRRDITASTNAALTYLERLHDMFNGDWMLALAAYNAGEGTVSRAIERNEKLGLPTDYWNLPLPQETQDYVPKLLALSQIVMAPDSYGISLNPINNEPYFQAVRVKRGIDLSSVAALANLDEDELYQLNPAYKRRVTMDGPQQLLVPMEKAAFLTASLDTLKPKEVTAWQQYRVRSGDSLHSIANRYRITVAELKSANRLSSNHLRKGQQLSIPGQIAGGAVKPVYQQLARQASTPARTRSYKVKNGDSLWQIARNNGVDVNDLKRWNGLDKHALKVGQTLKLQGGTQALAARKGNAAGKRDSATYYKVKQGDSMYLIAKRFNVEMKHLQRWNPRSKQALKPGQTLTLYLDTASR
As to the kind of experiment: SPR; RlpA-Δ81 or RlpA-SPOR amine-coupled to its own CM4 chip, partner as analyte; 25 °C; 10 mM HEPES pH 7.4, 150 mM NaCl, 3 mM EDTA, 0.005% P20; alternate fitting model for PBP1a on RlpA-SPOR.

Assay [5] has as its target T5, MltF2 (P. aeruginosa PAO1, UniProt Q9HZY1 1-476).
T5 sequence (looked up): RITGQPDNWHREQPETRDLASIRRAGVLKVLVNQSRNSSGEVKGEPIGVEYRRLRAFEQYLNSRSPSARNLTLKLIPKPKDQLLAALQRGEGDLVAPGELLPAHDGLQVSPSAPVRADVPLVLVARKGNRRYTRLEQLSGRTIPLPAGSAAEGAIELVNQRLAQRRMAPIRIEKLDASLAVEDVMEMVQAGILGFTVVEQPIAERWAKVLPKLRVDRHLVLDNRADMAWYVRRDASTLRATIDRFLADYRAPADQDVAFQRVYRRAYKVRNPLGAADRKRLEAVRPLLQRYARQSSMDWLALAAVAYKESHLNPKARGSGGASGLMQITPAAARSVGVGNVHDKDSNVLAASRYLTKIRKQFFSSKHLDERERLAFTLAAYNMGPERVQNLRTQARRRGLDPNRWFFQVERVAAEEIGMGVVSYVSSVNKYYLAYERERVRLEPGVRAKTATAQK
Described as above.

The target of assay [6] is T6, TypA (P. aeruginosa PAO1, UniProt Q9HU67 1-605).
T6 sequence (looked up): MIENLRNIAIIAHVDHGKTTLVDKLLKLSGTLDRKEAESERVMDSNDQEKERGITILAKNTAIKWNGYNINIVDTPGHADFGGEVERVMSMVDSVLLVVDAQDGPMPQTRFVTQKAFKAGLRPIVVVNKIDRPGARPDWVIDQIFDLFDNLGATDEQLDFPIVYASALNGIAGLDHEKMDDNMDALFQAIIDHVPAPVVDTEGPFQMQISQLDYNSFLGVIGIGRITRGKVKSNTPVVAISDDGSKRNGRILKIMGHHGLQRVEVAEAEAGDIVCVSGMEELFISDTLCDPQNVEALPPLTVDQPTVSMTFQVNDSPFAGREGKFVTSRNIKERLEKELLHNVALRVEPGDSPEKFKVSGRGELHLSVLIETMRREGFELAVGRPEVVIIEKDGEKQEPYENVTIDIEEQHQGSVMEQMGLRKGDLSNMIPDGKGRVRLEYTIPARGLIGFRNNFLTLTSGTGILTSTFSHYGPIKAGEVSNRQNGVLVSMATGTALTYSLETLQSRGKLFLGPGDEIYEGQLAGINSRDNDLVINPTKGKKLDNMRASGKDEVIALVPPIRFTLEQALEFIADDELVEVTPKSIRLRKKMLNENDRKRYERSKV
The assay is described as above.

The target of assay [7] is T3, PBP1a. Described as above.
Assay [8] addresses T7, PilO (P. aeruginosa PAO1, UniProt G3XD51).
T7 construct: source: E. coli, purified (Ni-NTA or Strep-Tactin)
T7 sequence: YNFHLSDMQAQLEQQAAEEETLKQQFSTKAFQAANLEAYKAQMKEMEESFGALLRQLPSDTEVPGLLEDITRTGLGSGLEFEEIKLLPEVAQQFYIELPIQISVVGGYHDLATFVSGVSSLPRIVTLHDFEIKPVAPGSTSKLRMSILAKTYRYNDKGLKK
As to the kind of experiment: SPR.

For assay [9], the target named is T8, PA2854 (P. aeruginosa PAO1, UniProt Q9HZZ0).
T8 construct: source: E. coli, purified (Ni-NTA or Strep-Tactin)
T8 sequence: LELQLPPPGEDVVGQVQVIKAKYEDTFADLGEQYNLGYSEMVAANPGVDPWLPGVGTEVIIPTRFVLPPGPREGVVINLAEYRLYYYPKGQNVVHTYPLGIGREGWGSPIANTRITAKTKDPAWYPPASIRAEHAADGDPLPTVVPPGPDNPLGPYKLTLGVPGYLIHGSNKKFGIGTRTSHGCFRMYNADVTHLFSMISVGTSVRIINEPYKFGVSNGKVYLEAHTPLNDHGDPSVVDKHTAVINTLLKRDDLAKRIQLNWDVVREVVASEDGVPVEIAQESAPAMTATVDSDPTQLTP
Put plainly: SPR.

The target of assay [10] is T4, MltD. Put plainly: SPR.
Assay [11] has as its target T9, PBP4 (P. aeruginosa PAO1, UniProt Q9HZG1 1-476).
T9 sequence (looked up): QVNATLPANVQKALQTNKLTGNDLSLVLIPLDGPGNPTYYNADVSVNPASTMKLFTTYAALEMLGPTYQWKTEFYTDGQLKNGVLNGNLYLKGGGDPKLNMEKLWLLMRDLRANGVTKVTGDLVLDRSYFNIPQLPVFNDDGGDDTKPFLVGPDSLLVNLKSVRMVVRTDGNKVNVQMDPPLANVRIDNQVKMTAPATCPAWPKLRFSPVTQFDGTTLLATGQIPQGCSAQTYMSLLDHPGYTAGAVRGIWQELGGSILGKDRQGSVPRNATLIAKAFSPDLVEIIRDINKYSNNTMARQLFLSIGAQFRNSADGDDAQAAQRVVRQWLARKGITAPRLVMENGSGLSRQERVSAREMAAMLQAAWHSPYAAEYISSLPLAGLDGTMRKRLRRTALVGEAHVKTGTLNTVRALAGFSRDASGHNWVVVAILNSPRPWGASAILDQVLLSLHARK
Put plainly: SPR.

Assay [12] has as its target T10, SltB2 (P. aeruginosa PAO1, UniProt Q9I4G6 1-398).
T10 sequence (looked up): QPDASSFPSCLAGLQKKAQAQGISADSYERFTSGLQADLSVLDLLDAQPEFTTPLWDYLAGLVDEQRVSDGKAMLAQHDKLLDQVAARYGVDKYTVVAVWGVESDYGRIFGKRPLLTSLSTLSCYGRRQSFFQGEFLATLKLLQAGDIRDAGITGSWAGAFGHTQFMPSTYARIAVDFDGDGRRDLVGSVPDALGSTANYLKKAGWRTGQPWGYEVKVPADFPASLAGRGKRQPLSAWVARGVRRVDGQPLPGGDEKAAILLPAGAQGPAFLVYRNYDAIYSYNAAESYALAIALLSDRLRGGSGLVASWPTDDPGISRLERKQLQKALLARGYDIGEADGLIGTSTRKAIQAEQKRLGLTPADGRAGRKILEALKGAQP
Put plainly: SPR.

Assay [13] deals with T11, MltB (P. aeruginosa PAO1, UniProt Q9HVX3 1-367).
T11 sequence (looked up): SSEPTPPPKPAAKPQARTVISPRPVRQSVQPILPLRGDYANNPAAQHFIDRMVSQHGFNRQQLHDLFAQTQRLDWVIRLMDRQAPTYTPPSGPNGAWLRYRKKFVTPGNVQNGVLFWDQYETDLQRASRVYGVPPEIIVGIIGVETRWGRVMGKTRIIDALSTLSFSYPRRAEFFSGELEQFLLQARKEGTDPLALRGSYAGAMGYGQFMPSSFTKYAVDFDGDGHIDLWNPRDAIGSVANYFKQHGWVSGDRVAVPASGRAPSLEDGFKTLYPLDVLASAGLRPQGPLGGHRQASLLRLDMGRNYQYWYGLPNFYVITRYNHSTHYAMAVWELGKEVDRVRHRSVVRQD
As to the kind of experiment: SPR.

Assay [14] concerns the target T5, MltF2. As to the kind of experiment: SPR.
In assay [15] the target is MltF (P. aeruginosa PAO1, UniProt Q9HXN1 33-490). Put plainly: SPR.
The target in assay [16] is T6, TypA. Put plainly: SPR.
The target in assay [17] is T3, PBP1a. As to the kind of experiment: SPR.

T3 sequence (Q07806 27-822): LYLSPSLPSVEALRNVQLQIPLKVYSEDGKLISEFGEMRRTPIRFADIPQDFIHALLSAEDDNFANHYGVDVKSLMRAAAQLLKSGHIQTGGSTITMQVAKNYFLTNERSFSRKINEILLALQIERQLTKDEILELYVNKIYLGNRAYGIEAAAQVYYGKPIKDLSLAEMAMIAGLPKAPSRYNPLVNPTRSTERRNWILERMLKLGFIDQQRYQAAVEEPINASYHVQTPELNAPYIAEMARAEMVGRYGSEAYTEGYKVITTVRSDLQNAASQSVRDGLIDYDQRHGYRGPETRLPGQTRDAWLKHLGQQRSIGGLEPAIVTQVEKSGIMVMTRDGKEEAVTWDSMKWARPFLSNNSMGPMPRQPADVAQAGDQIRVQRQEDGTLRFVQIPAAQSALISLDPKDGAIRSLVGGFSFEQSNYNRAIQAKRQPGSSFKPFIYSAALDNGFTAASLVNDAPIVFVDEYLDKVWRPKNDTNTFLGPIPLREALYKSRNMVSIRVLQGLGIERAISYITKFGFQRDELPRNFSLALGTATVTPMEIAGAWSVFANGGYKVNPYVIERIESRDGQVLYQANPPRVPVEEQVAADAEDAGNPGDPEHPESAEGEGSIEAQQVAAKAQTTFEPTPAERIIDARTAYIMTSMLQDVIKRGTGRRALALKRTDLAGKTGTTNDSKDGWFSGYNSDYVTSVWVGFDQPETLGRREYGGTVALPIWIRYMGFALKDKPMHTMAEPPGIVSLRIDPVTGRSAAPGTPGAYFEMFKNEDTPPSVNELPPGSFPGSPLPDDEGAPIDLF
Chain of MltF (Q9HXN1 33-490): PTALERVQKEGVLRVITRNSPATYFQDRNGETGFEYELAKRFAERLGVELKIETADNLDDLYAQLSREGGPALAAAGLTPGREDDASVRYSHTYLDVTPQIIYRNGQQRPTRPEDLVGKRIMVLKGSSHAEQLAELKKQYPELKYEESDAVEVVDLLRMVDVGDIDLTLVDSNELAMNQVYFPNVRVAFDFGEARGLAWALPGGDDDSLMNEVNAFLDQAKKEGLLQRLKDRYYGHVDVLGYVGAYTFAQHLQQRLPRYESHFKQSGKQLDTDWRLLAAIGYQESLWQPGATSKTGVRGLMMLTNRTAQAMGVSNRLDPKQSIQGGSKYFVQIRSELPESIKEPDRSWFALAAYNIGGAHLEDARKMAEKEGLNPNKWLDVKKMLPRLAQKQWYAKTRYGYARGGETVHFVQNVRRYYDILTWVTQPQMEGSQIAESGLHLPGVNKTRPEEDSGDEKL

B1: RlpA-SPOR (domain or fragment, P. aeruginosa PAO1, UniProt Q9X6V6 264-342, looked up)
chain: ADGLYLQVGAFANPDAAELLKAKLSGVTAAPVFISSVVRNQQILHRVRLGPIGSADEVSRTQDSIRVANLGQPTLVRPD
Consider B1, for which the Kd is 9.8 µM in assay [1]; 0.073 µM in [2]; 0.104 µM in assay [3]; 0.2 µM in assay [4]; 0.098 µM in [5]; 4.25 µM in [6]. Moreover, the values for the Kd in [7], in [8] and in assay [9] were 0.19 µM, 5.76 µM and 1.41 µM, respectively. Besides, the figures for the “stoichiometry N” value in [2] and in assay [3] were 1 and 0.26, respectively. Also, the dissociation rate constant (koff) in [4] stood at 0.0027 s⁻¹; in assay [5] it was 0.00077 s⁻¹; in assay [6], 0.00034 s⁻¹; in assay [7], 0.00049 s⁻¹; in assay [8], 0.00438 s⁻¹; in assay [9], 0.00038 s⁻¹. For the same molecule, the kon in assay [4] is 13800 M⁻¹ s⁻¹; in assay [5], 7900 M⁻¹ s⁻¹; in assay [6] it was 80 M⁻¹ s⁻¹; in assay [7], 2600 M⁻¹ s⁻¹; in assay [8] it was 760 M⁻¹ s⁻¹; in [9] it was 270 M⁻¹ s⁻¹.

B2: RlpA-Δ32 (domain or fragment)
chain: PQQPARQAGISGPGDYSRPHRDGAPWWDVDVSRIPDAVPMPHNGSVKANPYTVLGKTYYPMNDARAYRMVGTASWYGTKFHGQATANGETYDLYGMTAAHKTLPLPSYVRVTNLDNGKSVIVRVNDRGPFYSDRVIDLSFAAAKKLGYAETGTARVKVEGIDPVQWWAQRGRPAPMVLAQPKQAVAQAAPAAAQTQAVAMAQPIETYTPPPAQHAAAVLPVQIDSKKNASLPADGLYLQVGAFANPDAAELLKAKLSGVTAAPVFISSVVRNQQILHRVRLGPIGSADEVSRTQDSIRVANLGQPTLVRPD
notes: source: E. coli BL21-star (DE3), purified (Ni-NTA)
For the molecule B2, the Kd stood at 0.43 µM in [10]; 0.13 µM in assay [11]; 1.04 µM in assay [12]; 0.62 µM in [13]; 0.006 µM in assay [14]; 2.02 µM in [16]. In addition, the dissociation constant Kd in assay [17] is 0.34 µM. Also, the off-rate constant (koff) in assay [10] came out at 0.00116 s⁻¹; in [11] it was 0.00086 s⁻¹; in assay [12] it was 0.0005 s⁻¹; in assay [13] it was 0.00079 s⁻¹; in assay [14], 0.00028 s⁻¹; in assay [16], 0.00077 s⁻¹. Further, in assay [17], the koff was 0.00144 s⁻¹. Besides, the association rate constant (kon) in [10] worked out at 2700 M⁻¹ s⁻¹; in assay [11], 6700 M⁻¹ s⁻¹; in [12], 480 M⁻¹ s⁻¹; in assay [13], 1270 M⁻¹ s⁻¹; in assay [14] it was 44000 M⁻¹ s⁻¹; in assay [15], 500 M⁻¹ s⁻¹. For the same molecule, the results for the kon in [16] and in [17] were 380 M⁻¹ s⁻¹ and 4200 M⁻¹ s⁻¹, respectively.
